{"source": "patent US20160136236A1", "about": "(MODERNA THERAPEUTICS, published 2016)", "target": "T1, BODIPY-labeled LDL (low density lipoprotein) (UniProt P04114 28-4563, BODIPY fluorescent label, site not stated)", "T1 construct": "A lipoprotein particle (protein and lipid), not a pure protein; also called BODIPY-LDL; LDL-BODIPY", "assay": "FACS; increasing amounts of BODIPY-LDL for 1 h at 37 C on HEK293 cells transfected with LDLR mRNA", "data": [{"binder": "wild type (WT) human low density lipoprotein receptor (LDLR) (receptor, also called LDL receptor; wild-type LDLR) not shown", "values": [{"measurement": "Kd", "result": "~0.06", "unit": "mg/L"}]}]}
